The target in the assay is partially (~50%) activated 3954-1204-c225v5. Briefly: sandwich ELISA in human plasma; clone 41 coated as capture, biotinylated detection antibody, streptavidin-HRP, OD 450 nm. (In general: An ELISA detects its analyte on a solid surface through an enzyme-linked reagent.)

B1: antibody 58-1 (antibody, V domains shown)
VH: QSVEESGGRLVMPGGSLTLTCTVSGIDLSRYGMAWFRQAPGKGLKYIGAISSSGNEDYASWAIGRFTISKTSTTAELKMTSLTTEDTATYFCGRGWLSNNAYMWGPGTLVTVSS
VL: PVLTQTPTPVSAAVGGTVTINCQASQSIYNKNQLSWFQQKPGQPPKLLIHYASTLASGVSSRFKGSGSGTQFTLTISDVQCDDAATYYCLGDFSCSGVDCLVVGGGTEVVVEG
In turn, B1 registered a signal relative to the signal for intact 3954-1204-c225v5 of 50 % lower.

B2: antibody 72-3 (antibody, V domains shown)
VH: QSVEESGGRLVMPGGSLTLTCTVSGIDLSHYGMAWFRQAPGKGLEYIGAISSSGNEDYASWPKGRFTISKTSTTVTLKMTSLTTEDTATYFCGRGWLSNNVYMWGPGTLVTVSS
VL: QVLTQTPPSVSAAVGGTVTINCQASQSIYNKNQLSWLQQKPGQPPKVLIHYASTLASGVSSRFKGSGSGTQFTLTISDVQCDDAATYYCLGDFSCSGVDCLSVGGGTEVVVEG
B2 registered a signal relative to the signal for intact 3954-1204-c225v5 of 50 % lower.

The values above are taken from US20170326260A1.
